Among the data in patent US20240400654A1 are OD450 nm and Ratio OD(Variant)/OD(WT) values, retold here.

Positions count from the first letter of the chain named. Names may count otherwise. “And” between values parts separate entries of the source, which are not always exact repeats. Equal entries are not always repeated.

The assay deals with HRgpA-6H (Porphyromonas gingivalis) (UniProt P28784). Kind of assay: ELISA, coated HRgpA-6H.

B1: KB001 mouse Fab VH Y106N (Fab, V domains shown)
VH: EVQLKQSGPGLVAPSQSLSITCTVSGFSLSIYSVHWVRQPPGKGLEWLGMIWGGGSSDYNSALKSRLSISKDNSKSQVFLKMNSLQTDDTAMYYCARNGNFYAMDNWGQGTSVTVSS
VL: QIVLTQSPAIMSASLGERVTMTCTASSSVSSSFLHWYQQKPGSSPQLWIYSTSNLASGVPARFSGSGSGTSYSLTISSMEAEDAATYYCHQYHHSPYIYTFGGGTKLEIK
In the case of B1, the OD450 nm was 0.792 and the Ratio OD(Variant)/OD(WT) amounted to 1.03.

B2: KB001 mouse Fab VH G26D (Fab, V domains shown)
VH: B1 VH with G26D, N106Y
VL: B1 VL
As to B2, the OD450 nm is 0.47 and 0.481; the Ratio OD(Variant)/OD(WT) is 0.925 and 0.947.

B3: KB001 mouse Fab VH S28L (Fab, V domains shown)
VH: B1 VH with S28L, N106Y
VL: B1 VL
Turning to B3, the OD450 nm was 0.435 and 0.468; the Ratio OD(Variant)/OD(WT) is 0.806 and 0.867.

B4: KB001 mouse Fab VH I31Q (Fab, V domains shown)
VH: B1 VH with I31Q, N106Y
VL: B1 VL
As for B4, the OD450 nm was 0.44 and 0.439; the Ratio OD(Variant)/OD(WT) was 0.872 and 0.87.

B5: KB001 mouse Fab VH I31N (Fab, V domains shown)
VH: B1 VH with I31N, N106Y
VL: B1 VL
Turning to B5, the OD450 nm was 0.429 and the Ratio OD(Variant)/OD(WT) amounted to 0.85.

B6: KB001 mouse Fab VH L29T (Fab, V domains shown)
VH: B1 VH with L29T, N106Y
VL: B1 VL
Turning to B6, the OD450 nm is 0.502 and 0.512 and 0.501; the Ratio OD(Variant)/OD(WT) was 0.93 and 0.948 and 0.928.

B7: KB001 mouse Fab VH S28R (Fab, V domains shown)
VH: B1 VH with S28R, N106Y
VL: B1 VL
Take B7: the OD450 nm stood at 0.458 and the Ratio OD(Variant)/OD(WT) is 0.848.

B8: KB001 mouse Fab VH S30K (Fab, V domains shown)
VH: B1 VH with S30K, N106Y
VL: B1 VL
Take B8: the OD450 nm is 0.46 and 0.467 and 0.493; the Ratio OD(Variant)/OD(WT) is 0.912 and 0.926 and 0.977.

B9: KB001 mouse Fab VH V34M (Fab, V domains shown)
VH: B1 VH with V34M, N106Y
VL: B1 VL
Take B9: the OD450 nm is 0.793 and 0.791; the Ratio OD(Variant)/OD(WT) was 0.962 and 0.959.

B10: KB001 mouse Fab VH L29V (Fab, V domains shown)
VH: B1 VH with L29V, N106Y
VL: B1 VL
Consider B10, for which the OD450 nm was determined as 0.446 and the Ratio OD(Variant)/OD(WT) was found to be 0.826.

B11: KB001 mouse Fab VH H35V (Fab, V domains shown)
VH: B1 VH with H35V, N106Y
VL: B1 VL
Regarding B11, the OD450 nm amounted to 0.706 and the Ratio OD(Variant)/OD(WT) was found to be 0.856.

B12: KB001 mouse Fab VH S28N (Fab, V domains shown)
VH: B1 VH with S28N, N106Y
VL: B1 VL
Consider B12, for which the OD450 nm came out at 0.53 and the Ratio OD(Variant)/OD(WT) turned out to be 0.981.

B13: KB001 mouse Fab VH S28Y (Fab, V domains shown)
VH: B1 VH with S28Y, N106Y
VL: B1 VL
Regarding B13, the OD450 nm worked out at 0.437 and the Ratio OD(Variant)/OD(WT) came to 0.809.

B14: KB001 mouse Fab VH S30L (Fab, V domains shown)
VH: B1 VH with S30L, N106Y
VL: B1 VL
On to B14, for which the OD450 nm was found to be 0.468 and the Ratio OD(Variant)/OD(WT) was determined as 0.928.

B15: KB001 mouse Fab VH S28A (Fab, V domains shown)
VH: B1 VH with S28A, N106Y
VL: B1 VL
Take B15: the OD450 nm was found to be 0.488 and the Ratio OD(Variant)/OD(WT) stood at 0.904.

B16: KB001 mouse Fab VH G26N (Fab, V domains shown)
VH: B1 VH with G26N, N106Y
VL: B1 VL
In the case of B16, the OD450 nm is 0.445 and the Ratio OD(Variant)/OD(WT) is 0.876.

B17: KB001 mouse Fab VH Y32S (Fab, V domains shown)
VH: B1 VH with Y32S, N106Y
VL: B1 VL
B17: the OD450 nm is 0.717 and 0.783 and 0.718; the Ratio OD(Variant)/OD(WT) was 0.847 and 0.925 and 0.848.

B18: KB001 mouse Fab VH I31F (Fab, V domains shown)
VH: B1 VH with I31F, N106Y
VL: B1 VL
Consider B18, for which the OD450 nm was 0.45 and the Ratio OD(Variant)/OD(WT) turned out to be 0.892.

B19: KB001 mouse Fab VH S28G (Fab, V domains shown)
VH: B1 VH with S28G, N106Y
VL: B1 VL
With B19, the OD450 nm was 0.468 and 0.486; the Ratio OD(Variant)/OD(WT) was 0.867 and 0.9.

B20: KB001 mouse Fab VH Y32N (Fab, V domains shown)
VH: B1 VH with Y32N, N106Y
VL: B1 VL
As to B20, the OD450 nm is 0.826 and 0.775; the Ratio OD(Variant)/OD(WT) was 0.976 and 0.916.

B21: KB001 mouse Fab VH I31L (Fab, V domains shown)
VH: B1 VH with I31L, N106Y
VL: B1 VL
Regarding B21, the OD450 nm is 0.442 and 0.431; the Ratio OD(Variant)/OD(WT) is 0.876 and 0.854.

B22: KB001 mouse Fab VH I31W (Fab, V domains shown)
VH: B1 VH with I31W, N106Y
VL: B1 VL
For the molecule B22, the OD450 nm was 0.459 and the Ratio OD(Variant)/OD(WT) is 0.91.

B23: KB001 mouse Fab VH Y32W (Fab, V domains shown)
VH: B1 VH with Y32W, N106Y
VL: B1 VL
With B23, the OD450 nm is 0.731 and 0.718 and 0.747; the Ratio OD(Variant)/OD(WT) was 0.864 and 0.848 and 0.882.

B24: KB001 mouse Fab VH S30R (Fab, V domains shown)
VH: B1 VH with S30R, N106Y
VL: B1 VL
For the molecule B24, the OD450 nm was found to be 0.481 and the Ratio OD(Variant)/OD(WT) stood at 0.953.

B25: KB001 mouse Fab VH S28H (Fab, V domains shown)
VH: B1 VH with S28H, N106Y
VL: B1 VL
As for B25, the OD450 nm was 0.511 and 0.526; the Ratio OD(Variant)/OD(WT) was 0.946 and 0.974.

B26: KB001 mouse Fab VH Y32F (Fab, V domains shown)
VH: B1 VH with Y32F, N106Y
VL: B1 VL
As for B26, the OD450 nm is 0.814 and 0.807; the Ratio OD(Variant)/OD(WT) was 0.962 and 0.953.

B27: KB001 mouse Fab VH S30M (Fab, V domains shown)
VH: B1 VH with S30M, N106Y
VL: B1 VL
Consider B27, for which the OD450 nm was found to be 0.437 and the Ratio OD(Variant)/OD(WT) came to 0.866.

B28: KB001 mouse Fab VH I31P (Fab, V domains shown)
VH: B1 VH with I31P, N106Y
VL: B1 VL
With B28, the OD450 nm was 0.471 and 0.428; the Ratio OD(Variant)/OD(WT) was 0.934 and 0.848.

B29: KB001 mouse Fab VH Y106W (Fab, V domains shown)
VH: B1 VH with N106W
VL: B1 VL
On to B29, for which the OD450 nm is 0.791 and 0.809 and 0.82; the Ratio OD(Variant)/OD(WT) is 1.03 and 1.05 and 1.07.

B30: KB001 mouse Fab VH I31E (Fab, V domains shown)
VH: B1 VH with I31E, N106Y
VL: B1 VL
With B30, the OD450 nm was 0.42 and 0.458 and 0.428; the Ratio OD(Variant)/OD(WT) was 0.833 and 0.908 and 0.848.

B31: KB001 mouse Fab VH S30T (Fab, V domains shown)
VH: B1 VH with S30T, N106Y
VL: B1 VL
On to B31, for which the OD450 nm is 0.457 and the Ratio OD(Variant)/OD(WT) was 0.906.

B32: KB001 mouse Fab VH S30F (Fab, V domains shown)
VH: B1 VH with S30F, N106Y
VL: B1 VL
Regarding B32, the OD450 nm was 0.438 and the Ratio OD(Variant)/OD(WT) was 0.868.

B33: KB001 mouse Fab VH I51Q/M92I (Fab, V domains shown)
VH: B1 VH with I51Q, M92I, N106Y
VL: B1 VL
Turning to B33, the OD450 nm amounted to 0.722 and the Ratio OD(Variant)/OD(WT) amounted to 0.817.

B34: KB001 mouse Fab VH S30W (Fab, V domains shown)
VH: B1 VH with S30W, N106Y
VL: B1 VL
As for B34, the OD450 nm worked out at 0.469 and the Ratio OD(Variant)/OD(WT) is 0.93.

B35: KB001 mouse Fab VH L29P (Fab, V domains shown)
VH: B1 VH with L29P, N106Y
VL: B1 VL
As to B35, the OD450 nm was 0.468 and the Ratio OD(Variant)/OD(WT) amounted to 0.867.

B36: KB001 mouse Fab VH S30Q (Fab, V domains shown)
VH: B1 VH with S30Q, N106Y
VL: B1 VL
B36: the OD450 nm was 0.47 and 0.483; the Ratio OD(Variant)/OD(WT) is 0.932 and 0.957.

B37: KB001 mouse Fab VH S30H (Fab, V domains shown)
VH: B1 VH with S30H, N106Y
VL: B1 VL
For B37, the OD450 nm came out at 0.482 and the Ratio OD(Variant)/OD(WT) amounted to 0.955.
